# In US20250236657A1 (TOSOH, published 2025):
# Where a chain is given by its changes, count along the chain named.
# B1: AVR10s_A330C (receptor)
# chain: MGSAGESDQITLPKNEVQLNCYVLQEPPKGETSTYDWQLITHPRDYSGEMEGEHSQILKLSNLTPGLYEFKAVVEGQNAHSEGYVNVTVEPEPRKNRPPIAIVSPQFQEISLPTTSTVIDGSQSTDDDKIVQYHWEELKGPLREEKISEDTAILKLSKLVPGNYTFRLTVVDSDGATDSTTANLTVNKAVDHHHHHH
# B2: AVR10s_V332Y (receptor)
# chain: B1 chain with C21A, V23Y
# B3: AVR10s_V332W (receptor)
# chain: B1 chain with C21A, V23W
# B4: AVR10s_A330F (receptor)
# chain: B1 chain with C21F
# B5: AVR10s_A330R (receptor)
# chain: B1 chain with C21R
# B6: AVR10s_Q347S (receptor)
# chain: B1 chain with C21A, Q38S
# B7: AVR10s_A330W (receptor)
# chain: B1 chain with C21W
# B8: AVR10s_A330V (receptor)
# chain: B1 chain with C21V
# B9: AVR10s_L333C (receptor)
# chain: B1 chain with C21A, L24C
# B10: AVR10s_Y331C (receptor)
# chain: B1 chain with C21A, Y22C
# B11: AVR10s_I349N (receptor)
# chain: B1 chain with C21A, I40N
# B12: AVR10s_L348C (receptor)
# chain: B1 chain with C21A, L39C
# B13: AVR10s_A330Y (receptor)
# chain: B1 chain with C21Y
# B14: AVR10s_A330L (receptor)
# chain: B1 chain with C21L
# B15: AAV-binding protein AVR21 with cysteine tag (SEQ ID NO: 102), immobilised as AVR21 immobilization gel (receptor)
# chain: MGSAGESDQITLPKHEAQLNVYVLLVPPKGEASTYDWQLITHPRDYSGEMEGEHSQILKLSNLTPGLYEYRAVVEGQNAHSEGYVNVTVEPEPRKNRPPIAIVSPQFQEISLPTTSTVIDGSQSTDDDKIVQYHWEELKGPLREEKISEDTAILKLSQLVPGNYTFRLTVVDTDGATDSTTADLTVNKAVDHHHHHHCRNDTCG
# modifications: immobilised on a TOYOPEARL carrier with iodoacetamide groups; cysteine tag sequence serving as immobilization tag at positions 220-226
# notes: KIAA0319L PKD1 and PKD2 with 21 substitutions; also called AVR21 column
# B16: AAV-binding protein AVR10s (polypeptide of SEQ ID NO: 4, with polyhistidine tag) (receptor)
# chain: B1 chain with C21A
# Biological target: AAV vector (AAV5-EGFP), adeno-associated virus serotype 5 (adeno-associated virus serotype 5 (AAV5))
# Assay: ELISA, AAV5-EGFP coated, culture supernatant, anti-6His, A450
row,Binder,Binding activity for AAV5 (vs AVR10s) (ratio (AVR10s = 1))
1,B1,1.94
2,B2,1.5
3,B3,3.87
4,B4,1.68
5,B5,1.5
6,B6,1.73
7,B7,1.46
8,B8,1.83
9,B9,1.51
10,B10,1.3
11,B11,1.13
12,B12,1.19
13,B13,2.19
14,B14,1.53

# Biological target: T1, AAV2 G383A (adeno-associated virus serotype 2 (AAV2), UniProt P03135 1-735)
# T1 construct: Recombinant AAV2 vector particles in filtered cell lysate
# Assay: affinity HPLC on AVR21 column, pH gradient 6.0 to 2.0; no elution peak, not adsorbed and passed through
row,Binder,binding result
1,B15,no binding

# Biological target: T2, AAV2 H271F (adeno-associated virus serotype 2 (AAV2), UniProt P03135 1-735)
# T2 construct: Recombinant AAV2 vector particles in filtered cell lysate
# Assay: as above
row,Binder,binding result
1,B15,no binding

# Biological target: T3, AAV2 D529A (adeno-associated virus serotype 2 (AAV2), UniProt P03135 1-735)
# T3 construct: Recombinant AAV2 vector particles in filtered cell lysate
# Assay: as above
row,Binder,binding result
1,B15,no binding

# Biological target: AAV vector (AAV5-EGFP), adeno-associated virus serotype 5 (adeno-associated virus serotype 5 (AAV5))
# Assay: ELISA, AAV5-EGFP coated, culture supernatant, anti-6His, A450; the reference itself
row,Binder,Binding activity for AAV5 (vs AVR10s) (ratio (AVR10s = 1))
1,B16,1
